# Data from the supplement of paper PMC10724198.
# ± gives the standard deviation of the averaged measurements.
# System: Saccharomyces cerevisiae
# Assay: protein stability index of tFT-peptide fusion (C-terminal peptide) (PSI (0-1 scale)); higher = more stable (slower turnover)
# Conditions: genetic background: das1 deletion; temperature: 30 C
# Protocol: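 MPS profiling in S. cerevisiae of the yeast C-terminome library: the last 12 aa of each annotated ORF are fused to the C-terminus of a sfGFP-mCherry timer, after a GGGS linker. Cells are FACS-sorted into 8 mCherry/sfGFP bins and deep-sequenced. PSI runs from 0 (unstable) to 1 (stable); wild type and das1Δ backgrounds, two technical replicates each.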
row,Sequence,protein stability index
1,KNVTINTRETPL [DAL81 C-terminal 12 aa],0.694 ± 0.018
2,KPDSTAVRNEDE [YNR065C C-terminal 12 aa],0.7 ± 0.012
3,KQAIYTRAAASE [RPS25B C-terminal 12 aa],0.682 ± 0.054
4,KQGKKKKDCVIM [SKT5 C-terminal 12 aa],0.7193 ± 0.0022
5,KQKEAWYSFLFK [SCO1 C-terminal 12 aa],0.7138 ± 0.0035
6,KQLGSSHNYTVN [SKG6 C-terminal 12 aa],0.695 ± 0.019
7,KQPRFQLLFEFS [TTI2 C-terminal 12 aa],0.687 ± 0.011
8,KQYIEPESVKPN [ABD1 C-terminal 12 aa],0.6996 ± 0.0034
9,KRIDSYIDEMTT [MCO14 C-terminal 12 aa],0.723 ± 0.011
10,KRLHQLDGIPHA [MEO1 C-terminal 12 aa],0.703 ± 0.0079
11,KRRIEEIQMLFE [RAD5 C-terminal 12 aa],0.7081 ± 0.0032
12,KRSLRRNARKGL [ESC8 C-terminal 12 aa],0.721 ± 0.0077
13,KSALSKTLGLNK [NHA1 C-terminal 12 aa],0.699 ± 0.014
14,KSCGNNAGARIC [HO C-terminal 12 aa],0.7093 ± 0.00098
15,KSLETFRTTNTL [FBA1 C-terminal 12 aa],0.69 ± 0.011
16,KSPSITVNEFFH [RCN2 C-terminal 12 aa],0.698 ± 0.01
17,KSVPILLPQVCM [YIL059C C-terminal 12 aa],0.5945 ± 0.0057
18,KTDKVLYKRNGY [HPA3 C-terminal 12 aa],0.687 ± 0.02
19,KTFKLLTNKWIH [YAR009C C-terminal 12 aa],0.704 ± 0.018
20,KVFDRSGIVLEK [QRI1 C-terminal 12 aa],0.71 ± 0.013
21,KVKCALERKPYL [ZAP1 C-terminal 12 aa],0.706 ± 0.05

row,Sequence,protein stability index
1,KVVTRSIVLWGV [YGL235W C-terminal 12 aa],0.632 ± 0.02
2,KYFLRMVYPMKV [ESBP6 C-terminal 12 aa],0.4888 ± 0.0038
3,LADHLMEKYLSI [TFC4 C-terminal 12 aa],0.701 ± 0.025
4,LALNRDDPPDML [PEA2 C-terminal 12 aa],0.6989 ± 0.0011
5,LAQQLQQDSEAS [SWC5 C-terminal 12 aa],0.699 ± 0.039
6,LASDFIGRGYDD [WTM2 C-terminal 12 aa],0.6962 ± 0.0068
7,LATMILARMSCS [IRA1 C-terminal 12 aa],0.682 ± 0.023
8,LAYPACLACQAS [VPS69 C-terminal 12 aa],0.6 ± 0.02
9,LCHYLTPYMIIY [YOL106W C-terminal 12 aa],0.456 ± 0.016
10,LCILRIVGVANF [YER039C-A C-terminal 12 aa],0.426 ± 0.0017
11,LCSIYKALLLGP [ATF1 C-terminal 12 aa],0.6813 ± 0.0019
12,LDAENNNKCSIM [RHB1 C-terminal 12 aa],0.7192 ± 0.003
13,LDAEYYIKFASK [ERD1 C-terminal 12 aa],0.6942 ± 0.0061
14,LDFAKRKLKKKQ [TFB2 C-terminal 12 aa],0.714 ± 0.015
15,LDMAVIDNTTHN [SDO1 C-terminal 12 aa],0.712 ± 0.026
16,LDNIERDANDLS [LAM4 C-terminal 12 aa],0.695 ± 0.0073
17,LDTLQTASQYLP [VID22 C-terminal 12 aa],0.7056 ± 0.0017
18,LDYALVEMDKLF [UTP13 C-terminal 12 aa],0.708 ± 0.033
19,LEELDIEEEYSD [ACL4 C-terminal 12 aa],0.687 ± 0.059
20,LEHGLKVRMDEE [HIS7 C-terminal 12 aa],0.7083 ± 0.0038
21,LELLLAADYLSI [ELC1 C-terminal 12 aa],0.698 ± 0.034

row,Sequence,protein stability index
1,LELVLKNKEMEN [RSA3 C-terminal 12 aa],0.684 ± 0.016
2,LEQGFKVVSAKE [YCS4 C-terminal 12 aa],0.697 ± 0.057
3,LEQYEKTLVHDD [GCV3 C-terminal 12 aa],0.6942 ± 0.00074
4,LERILHEMHPPA [EOS1 C-terminal 12 aa],0.714 ± 0.012
5,LETLKKKKKRNN [MAK5 C-terminal 12 aa],0.711 ± 0.014
6,LFFLVGLQLAIP [YGR022C C-terminal 12 aa],0.324 ± 0.002
7,LFQPIIVKPLRS [YHR007C-A C-terminal 12 aa],0.599 ± 0.016
8,LFTAMRTVLFGK [CBP6 C-terminal 12 aa],0.704 ± 0.0044
9,LGYTDDEIYNRQ [SER2 C-terminal 12 aa],0.706 ± 0.026
10,LILHFVCLHFIN [OST2 C-terminal 12 aa],0.544 ± 0.017
11,LIRKMYYKNLKK [SSL2 C-terminal 12 aa],0.693 ± 0.05
12,LIYLNETLGTRL [IRC19 C-terminal 12 aa],0.705 ± 0.015
13,LKDEKRGDNVLA [THS1 C-terminal 12 aa],0.6983 ± 0.0068
14,LKHNGQRKLAST [ANT1 C-terminal 12 aa],0.685 ± 0.034
15,LKKPRSGFHVIV [YFR006W C-terminal 12 aa],0.69 ± 0.027
16,LKQENAYLLIRR [RPB8 C-terminal 12 aa],0.693 ± 0.0081
17,LKRTAIQFAAFS [SEC5 C-terminal 12 aa],0.6855 ± 0.0022
18,LLIQEEMKLKEV [YPK9 C-terminal 12 aa],0.7188 ± 0.0014
19,LLLPITSSLLFI [MIN4 C-terminal 12 aa],0.618 ± 0.011
20,LLMVGVPLLFSS [YPR159C-A C-terminal 12 aa],0.6249 ± 0.00071
21,LLSLLRVLKQPH [CSS1 C-terminal 12 aa],0.675 ± 0.023

row,Sequence,protein stability index
1,LMGAALAAVMLL [FIT3 C-terminal 12 aa],0.6841 ± 0.0054
2,LMNAQSNETKLN [PTC6 C-terminal 12 aa],0.7111 ± 0.0056
3,LMPSASLQDFYG [VID27 C-terminal 12 aa],0.73 ± 0.014
4,LNFFAEETLDFE [EAT1 C-terminal 12 aa],0.734 ± 0.033
5,LNLPWKRKKTTI [YCR101C C-terminal 12 aa],0.707 ± 0.017
6,LNPIRSLRYCNY [YPP1 C-terminal 12 aa],0.7156 ± 0.0026
7,LNSIDPALISKY [AFT2 C-terminal 12 aa],0.744 ± 0.035
8,LQALIIVQVMFS [YLL059C C-terminal 12 aa],0.128 ± 0.025
9,LQAVAVAVSTKK [FAS2 C-terminal 12 aa],0.659 ± 0.01
10,LQESKSQEKNKI [MRX19 C-terminal 12 aa],0.7135 ± 0.0016
11,LQVKAVRAKLDE [ALD4 C-terminal 12 aa],0.699 ± 0.031
12,LREMMNKDFAGL [PSD2 C-terminal 12 aa],0.708 ± 0.02
13,LRKNRSLDERYF [YML057C-A C-terminal 12 aa],0.7089 ± 0.0023
14,LRNKPFWENKRL [IPL1 C-terminal 12 aa],0.702 ± 0.019
15,LRRIAKKHHKKK [SPB1 C-terminal 12 aa],0.699 ± 0.044
16,LRRLTSPSRTQP [BAG7 C-terminal 12 aa],0.71894 ± 0.00039
17,LRSKGKRYDTRS [YJR018W C-terminal 12 aa],0.7035 ± 0.0016
18,LRSKSRLRGSHT [AHC1 C-terminal 12 aa],0.73 ± 0.014
19,LSATIFLRGFLL [YIM2 C-terminal 12 aa],0.675 ± 0.029
